From patent publication US20260184782A1 (TWIST BIOSCIENCE, published 2026)
Where a chain is given by its changes, count along the chain named. Values belong to the binder of their own block, whether it stands above or below them.

Target: T1, recombinant human TIGIT (human, UniProt Q495A1 22-141, limits assumed)
T1 construct: recombinant human TIGIT used in Carterra SPR; also called hTIGIT
T1 sequence (looked up): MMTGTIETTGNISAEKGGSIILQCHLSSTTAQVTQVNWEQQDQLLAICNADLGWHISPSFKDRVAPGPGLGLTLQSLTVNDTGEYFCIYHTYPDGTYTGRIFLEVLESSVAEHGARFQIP
Assay: SPR Carterra, average
Experimental: Binding affinities of VHH-Fc proteins to recombinant human TIGIT were measured by SPR using a Carterra instrument (Table 10A). […] Average values reported from measurements from 1-2 samples.

- Kd: 52.4 nM
- koff: 0.00428 s⁻¹
- kon: 81600 M⁻¹ s⁻¹
B1: TIGIT-SC99 (Fc fusion)
VHH: EVQLVESGGGLVQPGGSLRLSCAASGSIFSMNTMGWFRQAPGKEREFVGAINWSGGSTIYADSVKGRFTISADNSKNTAYLQMNSLKPEDTAVYYCARWDYDILTNYYWLEYWGQGTLVTVSS
notes: VHH-Fc fusion in assay

- Kd: 48.1 nM
- koff: 0.00168 s⁻¹
- kon: 34900 M⁻¹ s⁻¹
B2: TIGIT-SC72 (Fc fusion)
VHH: EVQLVESGGGLVQPGGSLRLSCAASGGLTFSSYAMGWFRQAPGKEREFVAAISWSGGRTYYADSVKGRFTISADNSKNTAYLQMNSLKPEDTAVYYCARWSAKRHSDTMTYYMDVWGQGTLVTVSS
notes: VHH-Fc fusion in assay

- Kd: 59.2 nM
- koff: 0.00287 s⁻¹
- kon: 48700 M⁻¹ s⁻¹
B3: TIGIT-SC29 (Fc fusion)
VHH: EVQLVESGGGLVQPGGSLRLSCAASGFTLENNMMGWFRQAPGKERELVAAIDWSGGSTIYADSVKGRFTISADNSKNTAYLQMNSLKPEDTAVYYCARGHDYGDYIAYWGQGTLVTVSS
notes: VHH-Fc fusion in assay

- Kd: 51.4 nM
- koff: 0.00216 s⁻¹
- kon: 42000 M⁻¹ s⁻¹
B4: TIGIT-SC5 (Fc fusion)
VHH: EVQLVESGGGLVQPGGSLRLSCAASGFAFGDSWMGWFRQAPGKEREWVASVLRGGYTWYADSVKGRFTISADNSKNTAYLQMNSLKPEDTAVYYCARESEGWFDPWGQGTLVTVSS
notes: VHH-Fc fusion in assay

- Kd: 55.2 nM
- koff: 0.00495 s⁻¹
- kon: 90400 M⁻¹ s⁻¹
B5: TIGIT-SC183 (Fc fusion)
VHH: B4 VHH with R97K, E98D, S99R, E100S, G101Y, W102S, P105Y
notes: VHH-Fc fusion in assay

- Kd: 28.7 nM
- koff: 0.00564 s⁻¹
- kon: 196000 M⁻¹ s⁻¹
B6: TIGIT-SC87 (Fc fusion)
VHH: EVQLVESGGGLVQPGGSLRLSCAASGSIDTINTMGWFRQAPGKEREFVAAITPSSRTTYYVDSVKGRFTISADNSKNTAYLQMNSLKPEDTAVYYCARWGGVTFGGVYPLEYWGQGTLVTVSS
notes: VHH-Fc fusion in assay

- Kd: 60.6 nM
- koff: 0.00722 s⁻¹
- kon: 119000 M⁻¹ s⁻¹
B7: TIGIT-SC182 (Fc fusion)
VHH: EVQLVESGGGLVQPGGSLRLSCAASGFTFSSSSMGWFRQAPGKEREFVAAINWSGGSTSYADSVKGRFTISADNSKNTAYLQMNSPKPEDTAVYYCAKDRSYSFDYWGQGTLVTVSS
notes: VHH-Fc fusion in assay

- Kd: 44.9 nM
- koff: 0.0249 s⁻¹
- kon: 1.09e+06 M⁻¹ s⁻¹
B8: TIGIT-SC65 (Fc fusion)
VHH: EVQLVESGGGLVQPGGSLRLSCAASGFTFGNYDMGWFRQAPGKEREFVAAITGSGRSTYYADSVKGRFTISADNSKNTAYLQMNSLKPEDTAVYYCARGRIAASGTKVYWYFDLWGQGTLVTVSS
notes: VHH-Fc fusion in assay

- Kd: 33.9 nM
- koff: 0.00146 s⁻¹
- kon: 57100 M⁻¹ s⁻¹
B9: TIGIT-SC161 (Fc fusion)
VHH: EVQLVESGGGLVQPGGSLRLSCAASGFTFSPSWMGWFRQAPGKEREWVASVLRGGYTWYADSVKGRFTISADNSKNTAYLQMNSLKPEDTAVYYCTTDRAIGVRPLFDHWGQGTLVTVSS
notes: VHH-Fc fusion in assay

- Kd: 126 nM
- koff: 0.0203 s⁻¹
- kon: 622000 M⁻¹ s⁻¹
B10: TIGIT-SC162 (Fc fusion)
VHH: B9 VHH with F27N, P31G, S32G, W33F
notes: VHH-Fc fusion in assay

- Kd: 55.7 nM
- koff: 0.00258 s⁻¹
- kon: 52800 M⁻¹ s⁻¹
B11: TIGIT-SC164 (Fc fusion)
VHH: EVQLVESGGGLVQPGGSLRLSCAASGFTFDRSWMGWFRQAPGKEREFVASVLRGGYTWYADSVKGRFTISADNSKNTAYLQMNSLKPEDTAVYYCTTEGSGWRNWGQGTLVTVSS
notes: VHH-Fc fusion in assay

- Kd: 47.9 nM
- koff: 0.0108 s⁻¹
- kon: 226000 M⁻¹ s⁻¹
B12: TIGIT-SC145 (Fc fusion)
VHH: EVQLVESGGGLVQPGGSLRLSCAASGNTFSGGFTLGYYVMGWFRQAPGKEREFVAAISRSGTLKAYADGVKGRFTISADNSKNTAYLQMNSLKPEDTAVYYCARVEAYGDPLGYWGQGTLVTVSS
notes: VHH-Fc fusion in assay

- Kd: 35.1 nM
- koff: 0.0124 s⁻¹
- kon: 354000 M⁻¹ s⁻¹
B13: TIGIT-SC44 (Fc fusion)
VHH: EVQLVESGGGLVQPGGSLRLSCAASGSIFGLGAMGWFRQAPGKERELVAITWGGSTTLYADSVKGRFTISADNSKNTAYLQMNSLKPEDTAVYYCATDQGQWLFDFWGQGTLVTVSS
notes: VHH-Fc fusion in assay

- Kd: 62 nM
- koff: 0.00814 s⁻¹
- kon: 143000 M⁻¹ s⁻¹
B14: TIGIT-SC15 (Fc fusion)
VHH: EVQLVESGGGLVQPGGSLRLSCAASGSILSFNHIGWFRQAPGKEREGVAWIARYDGSTLYADSVKGRFTISADNSKNTAYLQMNSLKPEDTAVYYCARARGGYVDYWGQGTLVTVSS
notes: VHH-Fc fusion in assay

- Kd: 30.8 nM
- koff: 0.00294 s⁻¹
- kon: 106000 M⁻¹ s⁻¹
B15: TIGIT-SC89 (Fc fusion)
VHH: EVQLVESGGGLVQPGGSLRLSCAASGSMSSINAMGWFRQAPGKEREFVAAINYEGDRTYYADSVKGRFTISADNSKNTAYLQMNSLKPEDTAVYYCARWTRGLVSGTYYYYMDVWGQGTLVTVSS
notes: VHH-Fc fusion in assay

- Kd: 59.5 nM
- koff: 0.00301 s⁻¹
- kon: 50500 M⁻¹ s⁻¹
B16: TIGIT-SC90 (Fc fusion)
VHH: EVQLVESGGGLVQPGGSLRLSCAASGDTFSSKAMGWFRQAPGKEREFVAAIRWSVSSTYYADSVKGRFTISADNSKNTAYLQMNSLKPEDTAVYYCARWTRGLVSGTYYYYMDVWGQGTLVTVSS
notes: VHH-Fc fusion in assay

- Kd: 55.4 nM
- koff: 0.0027 s⁻¹
- kon: 48800 M⁻¹ s⁻¹
B17: TIGIT-SC53 (Fc fusion)
VHH: EVQLVESGGGLVQPGGSLRLSCAASGFTFSPSWMGWFRQAPGKEREWVASVLRGGYTWYADSVKGRFTISADNSKNTAYLQMNSLKPEDTAVYYCARESTIVGAIDSWGQGTLVTVSS
notes: VHH-Fc fusion in assay

- Kd: 39.1 nM
- koff: 0.00116 s⁻¹
- kon: 29700 M⁻¹ s⁻¹
B18: TIGIT-SC66 (Fc fusion)
VHH: EVQLVESGGGLVQPGGSLRLSCAASGTTFSSAAMGWFRQAPGKEREWVASVLRGGYTWYADSVKGRFTISADNSKNTAYLQMNSLKPEDTAVYYCVTDPRQWLGHDYWGQGTLVTVSS
notes: VHH-Fc fusion in assay

- Kd: 35 nM
- koff: 0.0043 s⁻¹
- kon: 123000 M⁻¹ s⁻¹
B19: TIGIT-SC149 (Fc fusion)
VHH: EVQLVESGGGLVQPGGSLRLSCAASGFTLENNMMGWFRQAPGKEREFVAAISRSGTLKAYADSVKGRFTISADNSKNTAYLQMNSLKPEDTAVYYCAKVQGPYCSGGSCYLYTFDLWGQGTLVTVSS
notes: VHH-Fc fusion in assay

- Kd: 41.9 nM
- koff: 0.00561 s⁻¹
- kon: 158000 M⁻¹ s⁻¹
B20: TIGIT-SC133 (Fc fusion)
VHH: EVQLVESGGGLVQPGGSLRLSCAASGFTLENNMMGWFRQAPGKEREFVAAISASGTLRAYADSVKGRFTISADNSKNTAYLQMNSLKPEDTAVYYCACGRVSGAFIYFDYWGQGTLVTVSS
notes: VHH-Fc fusion in assay

- Kd: 55.2 nM
- koff: 0.00778 s⁻¹
- kon: 141000 M⁻¹ s⁻¹
B21: TIGIT-SC139 (Fc fusion)
VHH: EVQLVESGGGLVQPGGSLRLSCAASGFTLENNMMGWFRQAPGKEREFVAAISRSGTLKAYADSVKGRFTISADNSKNTAYLRMNSLKPEDTAVYYCAGLTSGGAFSYYWGQGTLVTVSS
notes: VHH-Fc fusion in assay

- Kd: 41 nM
- koff: 0.0278 s⁻¹
- kon: 677000 M⁻¹ s⁻¹
B22: TIGIT-SC131 (Fc fusion)
VHH: EVQLVESGGGLVQPGGSLRLSCAASGDTSEIYDMGWFRQAPGKEREFVAITWNSGRIGSNGFATYADSVKGRFTISADNSKNTAYLQMNSLKPEDTAVYYCARWAVGQAFDLWGQGTLVTVSS
notes: VHH-Fc fusion in assay

- Kd: 52.6 nM
- koff: 0.00387 s⁻¹
- kon: 80100 M⁻¹ s⁻¹
B23: TIGIT-SC16 (Fc fusion)
VHH: EVQLVESGGGLVQPGGSLRLSCAASGTTFSSAAMGWFRQAPGKEREWVASVLRGGYTWYADSVKGRFTISADNSKNTAYLQMNSLKPEDTAVYYCARDPVELGDYWGQGTLVTVSS
notes: VHH-Fc fusion in assay

- Kd: 41 nM
- koff: 0.00574 s⁻¹
- kon: 140000 M⁻¹ s⁻¹
B24: TIGIT-SC144 (Fc fusion)
VHH: EVQLVESGGGLVQPGGSLRLSCAASGFTLENNMMGWFRQAPGKEREFVAAISPSGTLRAYADSVKGRFTISADNSKNTAYLQMNSLKPEDTAVYYCAGIHDSGVPLGNWGQGTLVTVSS
notes: VHH-Fc fusion in assay

- Kd: 33.5 nM
- koff: 0.00146 s⁻¹
- kon: 43500 M⁻¹ s⁻¹
B25: TIGIT-SC102 (Fc fusion)
VHH: EVQLVESGGGLVQPGGSLRLSCAASGSTFSKHHAMGWFRQAPGKEREFVAAIRWSGGNTYYADSVKGRFTISADNSKNTAYLQMNSLKPEDTAVYYCARWYSSSGDYYYMDVWGQGTLVTVSS
notes: VHH-Fc fusion in assay

- Kd: 43.9 nM
- koff: 0.00191 s⁻¹
- kon: 43700 M⁻¹ s⁻¹
B26: TIGIT-SC129 (Fc fusion)
VHH: EVQLVESGGGLVQPGGSLRLSCAASGPTLGSYVMGWFRQAPGKEREFVAAISGSGDDTYYADSVKGRFTISADNSKNTAYLQMNSLKPEDTAVYYCARWREFPGYYFAIDVWGQGTLVTVSS
notes: VHH-Fc fusion in assay

- Kd: 73 nM
- koff: 0.00526 s⁻¹
- kon: 72000 M⁻¹ s⁻¹
B27: TIGIT-SC130 (Fc fusion)
VHH: B26 VHH with M34T, G55S
notes: VHH-Fc fusion in assay

- Kd: 44.6 nM
- koff: 0.000599 s⁻¹
- kon: 8760 M⁻¹ s⁻¹
B28: TIGIT-SC85 (Fc fusion)
VHH: EVQLVESGGGLVQPGGSLRLSCAASGRTFSPYTMGWFRQAPGKEREWVAGISQSGGSTAYADSVKGRFTISADNSKNTAYLQMNSLKPEDTAVYYCARDLNAMGDAYDIWGQGTLVTVSS
notes: VHH-Fc fusion in assay

- Kd: 45.6 nM
- koff: 0.00347 s⁻¹
- kon: 197000 M⁻¹ s⁻¹
B29: TIGIT-SC132 (Fc fusion)
VHH: EVQLVESGGGLVQPGGSLRLSCAASGFTLENNMMGWFRQAPGKEREFVAAISASGTLRAYADSVKGRFTISADNSKNTAYLQMNSLKPEDTAVYYCATWRPNRGRYYDWYFDLWGQGTLVTVSS
notes: VHH-Fc fusion in assay

- Kd: 45.4 nM
- koff: 0.00708 s⁻¹
- kon: 158000 M⁻¹ s⁻¹
B30: TIGIT-SC128 (Fc fusion)
VHH: EVQLVESGGGLVQPGGSLRLSCAASGFIGNYHAMGWFRQAPGKEREFVARITSGGSTYYADSVKGRFTISADNSKNTAYLQMNSLKPEDTAVYYCGGFGNWGQGTLVTVSS
notes: VHH-Fc fusion in assay
